Biological target: HLA class II molecules on the Burkitt lymphoma line Raji

- rosette formation / adhesion of Raji cells to transfected COS-7 cells: 23%
B1: LAG-3 protein (Lymphocyte Activation Gene-3), mature membrane protein of 470 amino acids (receptor)
chain: VPVVWAQEGAPAQLPCSPTIPLQDLSLLRRAGVTWQHQPDSGPPAAAPGHPLAPGPHPAAPSSWGPRPRRYTVLSVGPGGLRSGRLPLQPRVQLDERGRQRGDFSLWLRPARRADAGEYRAAVHLRDRALSCRLRLRLGQASMTASPPGSLRASDWVILNCSFSRPDRPASVHWFRNRGQGRVPVRESPHHHLAESFLFLPQVSPMDSGPWGCILTYRDGFNVSIMYNLTVLGLEPPTPLTVYAGAGSRVGLPCRLPAGVGTRSFLTAKWTPPGGGPDLLVTGDNGDFTLRLEDVSQAQAGTYTCHIHLQEQQLNATVTLAIITVTPKSFGSPGSLGKLLCEVTPVSGQERFVWSSLDTRSQRSFSGPWLEAQEAQLLSQPWQCQLYQGERLLGAAVYFTELSSPGAQRSGRAPGALPAGHLLLFLTLGVLSLLLLVTGAFGFHLWRRQWRPRRFSALEQGIHPRRLRAR

Source: patent US5976877
